The target of this assay is T1, human Amyloid beta 1-42 peptide (Homo sapiens, UniProt P05067).
T1 construct: biotinylated human Amyloid beta 1-42 peptide (rpeptide, USA; cat: A1117); purchased rPeptide, USA A1117; host or cells: synthetic peptide
Nature of the assay: Surface Plasmon Resonance kinetic profiling of purified scFv (ProteOn). In kind it is binding. Particulars: biotinylated human Amyloid beta 1-42 on streptavidin chip. The source says: Surface Plasmon Resonance was used to analyse the purified scFv clones that had shown significant improvement in binding affinity for human Amyloid beta 1-42 peptide over the parent sequence, Abet0144-GL, in the HTRF™ epitope competition assay (sections 1.3-1.6). Briefly, the ProteOn Protein Interaction Array System (BioRad, USA) was used to assess the kinetic parameters of the interaction between each purified scFv and synthetically produced human Amyloid beta 1-42 peptide. These experiments were performed essentially as described by Karlsson et al. (Karlsson et al., 1991).
The affinity of binding between each test scFv and human Amyloid beta 1-42 was estimated using assays in which biotinylated synthetic human Amyloid beta 1-42 peptide (rPeptide, USA; cat: Al 117) was non-covalently bound via a biotin/streptavidin interaction to a proprietary streptavidin chip (NTA 176-5021) at five different surface densities. The chip surface was regenerated between cycles by a single 60 second injection of 10 mM Glycine pH 2.0 to remove scFv bound to the peptide.
Each scFv at 100-200 nM was sequentially passed over the peptide surface for a sufficient amount of time to observe sensorgrams that could be fitted to an appropriate binding model with confidence. An irrelevant scFv blank was subtracted from the main dataset to reduce the impact of any buffer artefacts or non-specific binding effects. An appropriate binding model was then fitted to the data.

Residue numbers refer to the chain shown, from its start.

Consider 15 molecules from US20190262327A1, “COMBINATION OF A BACE INHIBITOR AND AN ANTIBODY OR ANTIGEN-BINDING FRAGMENT FOR THE TREATMENT OF A DISORDER ASSOCIATED WITH THE ACCUMULATION OF AMYLOID BETA” (ASTRAZENECA AB, priority 2016, published 2019).

T1 sequence (P05067 672-713): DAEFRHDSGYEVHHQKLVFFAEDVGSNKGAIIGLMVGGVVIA

B1: Abet0332: optimized anti-Aβ1-42 clone derived from Abet0144-GL (protein)
scFv (part 1 of 2): EVQLLESGGGLVQPGESLRLSCAASSDSWHTDIMWWVRQAPGKRLEWVSVIGNSNKKIAYADSVKGRFTISRDNSKNTLYLQMNSLRAEDTAVYYCAREWMDHSRPYYYYGMDVWGQGTLVTVSS
scFv (part 2 of 2): SYELTQPPSVSVSPGQTASITCSGHNIGAKWVSWYQQKPGQSPILVIYRDDKRPSGIPERFSASNSGHTATLTISGTQATDEADYYCQAQGQVTRSFGGGTKLTVL
modifications: left off: small tags and cut ends
notes: optimized anti-Aβ1-42 clone derived from Abet0144-GL
As for B1, the “ka” value is 329000 M⁻¹ s⁻¹ and the “kd” value came to 0.000129 s⁻¹.

B2: Abet0370: optimized anti-Aβ1-42 clone derived from Abet0144-GL (protein)
scFv (part 1 of 2): EVQLLESGGGLVQPGGSLRLSCAASGFHFPMSAMWWVRQAPGKGLEWVSVIGETPERQAYADSVKGRFTISRDNSKSTLYLQMNSLRAEDTAVYYCAREWMDHSRPYYYYGMDVWGQGTLVTVSS
scFv (part 2 of 2): SYELTQPPSVSVSPGQTASITCTTPHFNSKFASWYQQKPGQSPVLVIYRDDKRPSGIPERFSASNSGHTATLTISGTQAMDEADYYCQAQDSTTRVFGGGTRLTVL
modifications: left off: small tags and cut ends
notes: as for B1
For B2, the “ka” value was 119000 M⁻¹ s⁻¹ and the “kd” value was determined as 7.76e-05 s⁻¹.

B3: Abet0322b: optimized anti-Aβ1-42 clone derived from Abet0144-GL (protein)
scFv (part 1 of 2): EVQLLESGGGLVQPGGSLRLSCAASNEEFQYNPMWWVRQAPGKGLEWVSVIGSSGGATVYADAVKGRFTISRDNSENTLYLQMNSLRAEDTAVYYCAREWMDHSRPYYYYGMDVWGQGTLVTVSS
scFv (part 2 of 2): SYELTQPPSVSVSPGQTASITCSGHNLGDKFASWYQQKPGQSPVLVIYRDDKRPSEIPERFSASNSGHTATLTISGTQATDEADYYCSSQDTVTRVFGGGTKLTVL
modifications: left off: small tags and cut ends
notes: as for B1
For the molecule B3, the “ka” value came to 203000 M⁻¹ s⁻¹ and the “kd” value turned out to be 0.000165 s⁻¹.

B4: Abet0374: optimized anti-Aβ1-42 clone derived from Abet0144-GL (protein)
scFv (part 1 of 2): EVQLLESGGGLVQPGGSLRLSCAASGFQFKDTPMWWVRQAPGKGLEWVSVIGDQNHKKAYADSVKGRFTISRDNSKNTLYLQMNSLRAEDTAVYYCAREWMDHSRPYYYYGMDAWGQGTLVTVSS
scFv (part 2 of 2): B3 scFv (part 2 of 2) with S13T, D29G, E56G, S66F
modifications: left off: small tags and cut ends
notes: as for B1
On to B4, for which the “ka” value came to 256000 M⁻¹ s⁻¹ and the “kd” value is 6.04e-05 s⁻¹.

B5: Abet0371: optimized anti-Aβ1-42 clone derived from Abet0144-GL (protein)
scFv (part 1 of 2): EVQLSESGGGLVQPGGSLRLSCAASHDAFPFDTMWWVRQAPGKGLEWVSVIGSSGGTTVYADSVKGRFTVSRDNSKNTLYLQMNSLRAEDTAVYYCAREWMDHSRPYYYYGMDVWGQGTLVTVSS
scFv (part 2 of 2): B3 scFv (part 2 of 2) with L27I, G28S, D29S, K30S, F31W, A32V, E56G
modifications: left off: small tags and cut ends
notes: as for B1
Take B5: the “ka” value was found to be 357000 M⁻¹ s⁻¹ and the “kd” value came out at 0.000272 s⁻¹.

B6: Abet0342: optimized anti-Aβ1-42 clone derived from Abet0144-GL (protein)
scFv (part 1 of 2): B4 scFv (part 1 of 2) with Q28D, K30R, D31R, T32S, P33V, D53A, N55T, H56Q, K57N, A114V
scFv (part 2 of 2): B3 scFv (part 2 of 2) with G28E, E56G, H68D, T80M, S88Q, S89A, T92S, V93T
modifications: left off: small tags and cut ends
notes: as for B1
Regarding B6, the “ka” value worked out at 136000 M⁻¹ s⁻¹ and the “kd” value was found to be 5.73e-05 s⁻¹.

B7: Abet0328: optimized anti-Aβ1-42 clone derived from Abet0144-GL (protein)
scFv (part 1 of 2): EVQLLESGGGLVQPGGSLRLSCAASRDPFKADTMWWVRQAPRKRLEWVSVIGAHTTNSAYADSVKGRFTISRDNSKNTLYLQMNSLRAEDTAVYYCAREWMDRSRPYYYYGMDVWGQGTLVTVSS
scFv (part 2 of 2): B3 scFv (part 2 of 2) with A18V, H25R, G28E, E56G, I57V
modifications: left off: small tags and cut ends
notes: as for B1
As for B7, the “ka” value was 141000 M⁻¹ s⁻¹ and the “kd” value is 0.000103 s⁻¹.

B8: Abet0372: optimized anti-Aβ1-42 clone derived from Abet0144-GL (protein)
scFv (part 1 of 2): EVQLLESGGGLVQPGGSLRLSCAASSDMFNIETMWWVRQAPGKGLEWVSVIGKGMNNVSYADSVKGRFTISRDNSKNTLYLQMNSLRAEDTAVYYCAREWMDHSRPYYYYGMDVWGQGTLVTVSS
scFv (part 2 of 2): B3 scFv (part 2 of 2) with G28E, E56G
modifications: left off: small tags and cut ends
notes: as for B1
Consider B8, for which the “ka” value was 243000 M⁻¹ s⁻¹ and the “kd” value was determined as 0.000176 s⁻¹.

B9: Abet0323b: optimized anti-Aβ1-42 clone derived from Abet0144-GL (protein)
scFv (part 1 of 2): EVQLLESGGGLVQPGGSLRLSCAASTSTFQEDTMWWVRQAPGKGLEWVSVIGPNPKNNAYADSVKGRFTISRDNSKNTLYLQMNSLRAEDTAVYYCAREWMDHSRPYYYYGMDVWGQGTLVTVSS
scFv (part 2 of 2): B3 scFv (part 2 of 2) with G28E, E56G, I57V, T104I
modifications: left off: small tags and cut ends
notes: as for B1
Consider B9, for which the “ka” value was 210000 M⁻¹ s⁻¹ and the “kd” value worked out at 0.000188 s⁻¹.

B10: Abet0343: optimized anti-Aβ1-42 clone from VH1:VH2:VL3 recombination library (protein)
scFv (part 1 of 2): B2 scFv (part 1 of 2) with H28N, P30N, M31H, S32Q, A33V, E53K, P55N, R57N, Q58I, S77N
scFv (part 2 of 2): B3 scFv (part 2 of 2) with S1Q, Y2S, E3V, G28E, P39S, E56G
modifications: left off: small tags and cut ends
notes: optimized anti-Aβ1-42 clone from VH1:VH2:VL3 recombination library
In the case of B10, the “ka” value turned out to be 120000 M⁻¹ s⁻¹ and the “kd” value is 2.25e-05 s⁻¹.

B11: Abet0373: optimized anti-Aβ1-42 clone derived from Abet0144-GL (protein)
scFv (part 1 of 2): EVQLLESGGGLVQPGGSLRLSCVASGFDFERSVMWWVRQAPGKRLEWVSVIGSGKTNITYADSVKGRFTISRDNSKNTLYLQMNSLRAEDTAVYYCAREWMDHSRPYYYYGMDVWGQGTLVTVSS
scFv (part 2 of 2): B3 scFv (part 2 of 2) with G28E
modifications: left off: small tags and cut ends
notes: as for B1
Take B11: the “ka” value was 185000 M⁻¹ s⁻¹ and the “kd” value was determined as 8.92e-05 s⁻¹.

B12: Abet0378: optimized anti-Aβ1-42 clone; amber stop codon at VL position 91 read as glutamine (protein)
scFv (part 1 of 2): B9 scFv (part 1 of 2) with T26G, S27F, T28P, Q30E, E31T, T33I, P53T, P55T, K56D, N58V
scFv (part 2 of 2): B3 scFv (part 2 of 2) with G28E, E56G
modifications: left off: small tags and cut ends
notes: optimized anti-Aβ1-42 clone; amber stop codon at VL position 91 read as glutamine
Regarding B12, the “ka” value is 136000 M⁻¹ s⁻¹ and the “kd” value was determined as 6.41e-05 s⁻¹.

B13: Abet0368: optimized anti-Aβ1-42 clone derived from Abet0144-GL (protein)
scFv (part 1 of 2): EVQLLESGGGLVQPGGSLRLSCAASGFDFGPSPMWWVRQAPGKGLEWVSVIGKDTQNSTYADSVKGRFTISRDNSKDTLYLQMNSLKAEDTAVYYCAREWMDHSRPYYYYGMDVWGQGTLVTVSS
scFv (part 2 of 2): B3 scFv (part 2 of 2) with G28E, A32T, P39S, E56G, T77A
modifications: left off: small tags and cut ends
notes: as for B1
With B13, the “ka” value was found to be 187000 M⁻¹ s⁻¹ and the “kd” value was determined as 9e-05 s⁻¹.

B14: Abet0344: optimized anti-Aβ1-42 clone derived from Abet0144-GL (protein)
scFv (part 1 of 2): EVQLLESGGGLVQPGGSLSLSCAASGFTFSVYTMWWVRQAPGKGLEWVSVIGGNETRKAYADSVKGRFTISRDNSKNRLYLQMNSLRAEDTAVYYCAREWMDHSRPYYYYGMDVWGQGTLVTVSS
scFv (part 2 of 2): B3 scFv (part 2 of 2) with S1Q, Y2S, E3V, G28E, P39S, E56G, S88A, S89T, T92N, V93F
modifications: left off: small tags and cut ends
notes: as for B1
Turning to B14, the “ka” value turned out to be 77500 M⁻¹ s⁻¹ and the “kd” value turned out to be 5.73e-05 s⁻¹.

B15: Abet0329: optimized anti-Aβ1-42 clone derived from Abet0144-GL (protein)
scFv (part 1 of 2): EVQLLESGGGLVQPGGSLRLSCAASTFNLKRETMWWVRQAPGKGLEWVSVIGSHQERTSYADSVKGRFTISRDNSKNTLYLQMNSLRAEDTAVYYCAREWMDHSRPYYYYGMDVWGQGTLVTVSS
scFv (part 2 of 2): B3 scFv (part 2 of 2) with L27V, G28S, F31W, A32M, S33T, E56G
modifications: left off: small tags and cut ends
notes: as for B1
In the case of B15, the “ka” value turned out to be 197000 M⁻¹ s⁻¹ and the “kd” value amounted to 0.000138 s⁻¹.
